Results taken from patent US20170267738A1 (IMMATICS BIOTECHNOLOGIES, published 2017).

B1: TCR R10P2G12 (TCR, V domains shown)
V domain 1: AQKVTQAQTEISVVEKEDVTLDCVYETRDTTYYLFWYKQPPSGELVFLIRRNSFDEQNEISGRYSWNFQKSTSSFNFTITASQVVDSAVYFCALSEGNSGNTPLVFGKGTRLSVIA
V domain 2: DVKVTQSSRYLVKRTGEKVFLECVQDMDHENMFWYRQDPGLGLRLIYFSYDVKMKEKGDIPEGYSVSREKKERFSLILESASTNQTSMYLCASSLSSGSHQETQYFGPGTRLLVLE
B2: TCR R20P1H7 (TCR, V domains shown)
V domain 1: EDQVTQSPEALRLQEGESSSLNCSYTVSGLRGLFWYRQDPGKGPEFLFTLYSAGEEKEKERLKATLTKKESFLHITAPKPEDSATYLCAVQGENSGYSTLTFGKGTMLLVSP
V domain 2: EAQVTQNPRYLITVTGKKLTVTCSQNMNHEYMSWYRQDPGLGLRQIYYSMNVEVTDKGDVPEGYKVSRKEKRNFPLILESPSPNQTSLYFCASSLGPGLAAYNEQFFGPGTRLTVLE

Target: MHC/MAG-003 complex on target cells (human)
Assay: cell-based or functional assay

Binder | EC50 (target peptide titration, IFN-γ release)
B1 | ~10 nM
B2 | ~10 nM
